Legend:
[1] = biological target: Q223R extracellular murine leptin receptor Fc (LepRec-Fc) chimera (murine) (UniProt P48356); assay: SPR; BiaCore T200, CM5 chip; anti-mouse IgG1 amine-coupled (~2000 RU) captures LepRec-Fc from the concentrated supernatant (100-300 RU); leptin 1.25-60 nM as analyte; 25°C, HBS-EP buffer, 30 µl/min; 600 s association, 1000 s dissociation; global 1:1 Langmuir fit; mean of two experiments
[2] = biological target: WT extracellular murine leptin receptor Fc (LepRec-Fc) chimera (murine) (UniProt P48356); assay: as above

## Recombinant murine leptin (from UniProt P41160 22-167) (ligand)
[1]
  Kd: 0.0843 nM
  koff: 0.000147 s⁻¹
  kon: 1.75e+06 M⁻¹ s⁻¹
[2]
  Kd: 0.0647 nM
  koff: 0.000121 s⁻¹
  kon: 1.76e+06 M⁻¹ s⁻¹

Reference: PMC3990580
